The record followed here is US20240124539A1, “CROSSLINKED HELIX DIMER MIMICS OF SOS AND METHODS OF USING SAME” (NEW YORK UNIVERSITY, priority 2020, published 2024).

Positions of bridges follow the written chain, without caps; N, C: chain ends. Non-standard residues stand in square brackets, D forms with d. Chains are numbered I, II in the order given. No end group written: not given here. *: point of attachment. dibenzylether crosslinker = scaffold alkylating both cysteine thiols (drawn in Scheme 1 and; FITC = O=C1OC2(c3ccc(O)cc3Oc3cc(O)ccc32)c2ccc(NC(=S)*)cc21; hArg = N=C(N)NCCCC[C@H](N)C(=O)O; βAla = NCCC(=O)O

In assay [1] the target is K-Ras (endogenous, H358 cells) (human), P01116. Nature of the assay: cell-based or functional assay.
Assay [2] has as its target T1, fluorescently-labeled wild-type H-Ras-GDP (MST), P01112. Nature of the assay: microscale thermophoresis, dye-labelled H-Ras-GDP (5-10 nM), CHD titrated.
Assay [3] concerns the target T1, fluorescently-labeled wild-type …. Nature of the assay: microscale thermophoresis; AFDye 647-labelled wild-type H-Ras-GDP with serial dilutions of the CHD. Background: Microscale thermophoresis detects binding through changes in fluorescence in a small temperature gradient.
Assay [4] deals with T2, G12V mutant His6-tagged H-Ras (1-166) pre-loaded with GDP, P01112. Nature of the assay: microscale thermophoresis (column MST); AFDye 647-labelled G12V H-Ras-GDP with serial dilutions of the unlabelled CHD.
Assay [5] addresses KRAS (Homo sapiens), P01116. Nature of the assay: photoaffinity crosslinking in H358 cells, TMT MS proteomics.
The target in assay [6] is KRAS (Homo sapiens), P01116. Nature of the assay: photoaffinity crosslinking in H358 cells, TMT MS proteomics; vs control probe CP-266.
Assay [7] concerns the target T3, wild-type His6-tagged H-Ras (1-166) pre-loaded with GDP, P01112. Nature of the assay: fluorescence polarization, fluorescein-labelled CHD (15 nM), His6-H-Ras-GDP titrated.
Assay [8] has as its target T3, wild-type His6-tagged H-Ras (1-166) …. Nature of the assay: direct fluorescence polarization (FP); fluorescein-labelled CHD titrated with GDP-loaded His6-H-Ras.
In assay [9] the target is G12C mutant His6-tagged H-Ras (1-166) pre-loaded with GDP, P01112. The experiment in a line: direct fluorescence polarization (FP); fluorescein-labelled CHD titrated with GDP-loaded His6-H-Ras G12C. Background: In fluorescence polarisation assays a small probe gives low polarisation when free and higher when bound to something large.
In assay [10] the target is G12D mutant His6-tagged H-Ras (1-166) pre-loaded with GDP, P01112. The experiment in a line: direct fluorescence polarization (FP); fluorescein-labelled CHD titrated with GDP-loaded His6-H-Ras G12D.
For assay [11], the target named is T2, G12V mutant His6-tagged H-Ras (1-166) …. Nature of the assay: direct fluorescence polarization (FP); fluorescein-labelled CHD titrated with GDP-loaded His6-H-Ras G12V.
The target in assay [12] is T3, wild-type His6-tagged H-Ras (1-166) …. Nature of the assay: direct fluorescence polarization; fluorescein-labelled CHD titrated with GDP-loaded WT H-Ras.

B1: CHD^Sos-5 (designed binder)
chain 1: WIGRLCTEI[hArg]RLRNGN
chain 2: Ac-LAWRLRELERELARLC-NH2
modifications: linker I:6-II:16 via dibenzylether crosslinker; not fully specified (N-terminus, C-terminus)
As for B1, the ERK activation levels (ERK phosphorylation, Western blot, H358 cells) in assay [1] was below 1 µM. The Kd in assay [2] turned out to be 0.3 µM; in [4], 2.7 µM. Moreover, the EC50 (read off the curve) in assay [3] came to 0.2 µM.

B2: DZ2-CHD^Sos-5 (designed binder)
chain 1: WIGRLCTEIKRLRNGN
chain 2: LAWRLRELERELARLC
modifications: not checked
Consider B2, for which the Average Abundance in [5] was found to be 825. In assay [6], this molecule gave a Fold of 6.63 fold and a log2(fold) of 2.73.

B3: FITC-CHD^Sos-5 (designed binder)
chain 1: Ac-WIGRLCTEI[hArg]RLRNGN-NH2
chain 2: {FITC}-[βAla]LAWRLRELERELARLC-NH2
modifications: linker I:6-II:17 via dibenzylether crosslinker
On to B3, for which the Kd is 2 µM in assay [7]; 1.9 µM in assay [8]; 16.1 µM in assay [9]; 17.9 µM in assay [10]; 13.4 µM in [11].

B4: FITC-CHD^Sos-1 (designed binder)
chain 1: Ac-FIGRLCTEILKLREGN-NH2
chain 2: {FITC}-[βAla]LAWRLRELERELARLC
modifications: linker I:6-II:17 via dibenzylether crosslinker; not fully specified (C-terminus)
Consider B4, for which the Kd in [7] amounted to 32 µM; in assay [12] it was 32.2 µM.

As usually defined, the Kd is the free concentration of one partner at which half of the binding sites on the other are occupied at equilibrium, for simple one-to-one binding. Lower therefore signals a tighter complex. One may read the EC50 (read off the curve) as the concentration at which the effect is half-maximal. A higher EC50 (read off the curve) goes with a less potent agent.
